Laboratory results from publication PMC10397247.

Columns and labels:
Experiment in all cases: two-hybrid library CCmax;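 note: natural log of median RNA to DNA barcode read ratio; higher means stronger binding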
[1] = biological target: T1, 4H3165-AA; details: mean of both orientations
T1 chain: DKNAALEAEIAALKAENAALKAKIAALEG

[2] = biological target: T2, 4H2865-AA; details: mean of both orientations
T2 chain: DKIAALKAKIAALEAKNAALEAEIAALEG

[3] = biological target: T3, 4H3865-AA; details: mean of both orientations
T3 chain: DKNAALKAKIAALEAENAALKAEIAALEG

[4] = biological target: T4, 4H2725-AA; details: mean of both orientations
T4 chain: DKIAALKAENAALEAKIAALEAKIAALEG

[5] = biological target: T5, 4H1864-AA; details: mean of both orientations
T5 chain: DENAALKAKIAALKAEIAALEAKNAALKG

[6] = biological target: T6, 4H3130-AA
T6 chain: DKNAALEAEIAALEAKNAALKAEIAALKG

[7] = biological target: T7, 4H485-AA; details: mean of both orientations
T7 chain: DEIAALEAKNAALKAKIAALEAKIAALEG

[8] = biological target: T8, 4H174-AA
T8 chain: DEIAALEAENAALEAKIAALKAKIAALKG

[9] = biological target: T9, 4H3395-AA
T9 chain: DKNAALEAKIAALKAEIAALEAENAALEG

[10] = biological target: T10, 4H3590-AA; details: mean of both orientations
T10 chain: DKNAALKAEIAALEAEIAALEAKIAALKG

[11] = biological target: T11, 4H3009-AA; details: mean of both orientations
T11 chain: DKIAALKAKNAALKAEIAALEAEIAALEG

[12] = biological target: T12, 4H570-AA; details: mean of both orientations
T12 chain: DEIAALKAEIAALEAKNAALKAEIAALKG

[13] = biological target: T13, 4H710-AA; details: mean of both orientations
T13 chain: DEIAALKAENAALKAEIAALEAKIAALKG

[14] = biological target: T14, 4H2109-AA; details: mean of both orientations
T14 chain: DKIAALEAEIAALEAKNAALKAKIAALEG

[15] = biological target: T15, 4H3697-AA; details: mean of both orientations
T15 chain: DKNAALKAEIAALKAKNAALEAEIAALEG

[16] = biological target: T16, 4H3016-AA; details: mean of both orientations
T16 chain: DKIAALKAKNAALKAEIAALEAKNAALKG

[17] = biological target: T17, 4H1842-AA; details: mean of both orientations
T17 chain: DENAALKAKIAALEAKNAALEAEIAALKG

[18] = biological target: T18, 4H891-AA; details: mean of both orientations
T18 chain: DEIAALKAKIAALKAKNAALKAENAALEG

[19] = biological target: T19, 4H745-AA; details: mean of both orientations
T19 chain: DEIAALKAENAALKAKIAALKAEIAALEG

[20] = biological target: T20, 4H2389-AA; details: mean of both orientations
T20 chain: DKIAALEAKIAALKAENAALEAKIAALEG

[21] = biological target: T21, 4H2253-AA; details: mean of both orientations
T21 chain: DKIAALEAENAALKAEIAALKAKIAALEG

[22] = biological target: T22, 4H2438-AA; details: mean of both orientations
T22 chain: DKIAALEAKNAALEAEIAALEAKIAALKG

[23] = biological target: T23, 4H94-AA; details: mean of both orientations
T23 chain: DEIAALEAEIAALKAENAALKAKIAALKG

[24] = biological target: T24, 4H2649-AA; details: mean of both orientations
T24 chain: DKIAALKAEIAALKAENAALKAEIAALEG

[25] = biological target: T25, 4H629-AA; details: mean of both orientations
T25 chain: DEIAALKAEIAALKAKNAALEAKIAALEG

[26] = biological target: T26, 4H458-AA; details: mean of both orientations
T26 chain: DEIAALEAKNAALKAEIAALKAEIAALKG

[27] = biological target: T27, 4H3120-AA; details: mean of both orientations
T27 chain: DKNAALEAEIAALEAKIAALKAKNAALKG

[28] = biological target: T28, 4H1877-AA; details: mean of both orientations
T28 chain: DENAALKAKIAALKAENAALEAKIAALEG

[29] = biological target: T29, 4H2698-AA; details: mean of both orientations
T29 chain: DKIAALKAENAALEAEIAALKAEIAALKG

[30] = biological target: T30, 4H797-AA; details: mean of both orientations
T30 chain: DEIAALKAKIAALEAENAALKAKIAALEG

[31] = biological target: T31, 4H3381-AA; details: mean of both orientations
T31 chain: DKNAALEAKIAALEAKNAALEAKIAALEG

[32] = biological target: T32, 4H2473-AA; details: mean of both orientations
T32 chain: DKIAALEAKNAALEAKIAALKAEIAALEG

[33] = biological target: T33, 4H310-AA; details: mean of both orientations
T33 chain: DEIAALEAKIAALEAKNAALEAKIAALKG

[34] = biological target: T34, 4H2274-AA; details: mean of both orientations
T34 chain: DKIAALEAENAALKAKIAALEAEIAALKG

[35] = biological target: T35, 4H850-AA; details: mean of both orientations
T35 chain: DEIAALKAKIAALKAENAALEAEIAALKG

[36] = biological target: T36, 4H3410-AA; details: mean of both orientations
T36 chain: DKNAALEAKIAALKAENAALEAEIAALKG

[37] = biological target: T37, 4H909-AA; details: mean of both orientations
T37 chain: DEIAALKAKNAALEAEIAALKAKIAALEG

[38] = biological target: T38, 4H930-AA; details: mean of both orientations
T38 chain: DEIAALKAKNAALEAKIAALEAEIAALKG

[39] = biological target: T39, 4H3753-AA; details: mean of both orientations
T39 chain: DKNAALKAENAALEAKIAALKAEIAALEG

[40] = biological target: T40, 4H2330-AA; details: mean of both orientations
T40 chain: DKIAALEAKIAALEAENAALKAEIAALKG

[41] = biological target: T41, 4H536-AA; details: mean of both orientations
T41 chain: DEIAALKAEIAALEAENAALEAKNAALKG

[42] = biological target: T42, 4H2162-AA; details: mean of both orientations
T42 chain: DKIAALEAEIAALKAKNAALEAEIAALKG

interaction score [1]: -1.24
interaction score [2]: 0.805
interaction score [3]: 0.259
interaction score [4]: 1.47
interaction score [5]: -0.256
interaction score [6]: 1.99
interaction score [7]: 1.94
interaction score [8]: 1.79
interaction score [9]: 0.219
interaction score [10]: 2.2
interaction score [11]: 2.3
interaction score [12]: 1.49
interaction score [13]: 2.23
interaction score [14]: 2.01
interaction score [15]: -0.364
interaction score [16]: 1.81
interaction score [17]: -0.689
interaction score [18]: -0.401
interaction score [19]: 1.69
interaction score [20]: -0.219
interaction score [21]: 0.429
interaction score [22]: 2.25
interaction score [23]: 1.29
interaction score [24]: -0.748
interaction score [25]: -0.697
interaction score [26]: 0.887
interaction score [27]: -0.846
interaction score [28]: -0.507
interaction score [29]: 2.04
interaction score [30]: -1.35
interaction score [31]: -1.38
interaction score [32]: 1.69
interaction score [33]: 1.6
interaction score [34]: 1.3
interaction score [35]: 1.05
interaction score [36]: -0.289
interaction score [37]: 0.929
interaction score [38]: 1.44
interaction score [39]: 1.06
interaction score [40]: 0.552
interaction score [41]: -0.546
interaction score [42]: -0.944
Binder: DEIAALEAENAALEAKIAALKAKIAALKG [4H174-AA]
